Test results: patent US20140087995A1 (published 2014)
Each block holds one binder with its values, some of them ahead of it. Numbered stars: 1 amine (or outer) side, 2 acyl side, 3 side chain; on linkers, the order of the positions; unused ones are H or OH. Bridge positions count the residues as written; N and C are the ends. * marks the point of attachment. C20 diacid = O=C(O)CCCCCCCCCCCCCCCCCCC(=O)*; γGlu = O=C(O)[C@H](CCC(=O)[*:2])N[*:1]

How the values were obtained:
[1] = molecular target: T1, human calcitonin receptor (human, UniProt P30988 25-474); experiment: IC50 at hCTR divided by IC50 at hAmylin-R (reference)
T1 construct: whole, on cells; Membranes of a BHK tk'ts 13 cell line stably transfected with the human calcitonin receptor; also called hCTR; hCT
T1 sequence (looked up): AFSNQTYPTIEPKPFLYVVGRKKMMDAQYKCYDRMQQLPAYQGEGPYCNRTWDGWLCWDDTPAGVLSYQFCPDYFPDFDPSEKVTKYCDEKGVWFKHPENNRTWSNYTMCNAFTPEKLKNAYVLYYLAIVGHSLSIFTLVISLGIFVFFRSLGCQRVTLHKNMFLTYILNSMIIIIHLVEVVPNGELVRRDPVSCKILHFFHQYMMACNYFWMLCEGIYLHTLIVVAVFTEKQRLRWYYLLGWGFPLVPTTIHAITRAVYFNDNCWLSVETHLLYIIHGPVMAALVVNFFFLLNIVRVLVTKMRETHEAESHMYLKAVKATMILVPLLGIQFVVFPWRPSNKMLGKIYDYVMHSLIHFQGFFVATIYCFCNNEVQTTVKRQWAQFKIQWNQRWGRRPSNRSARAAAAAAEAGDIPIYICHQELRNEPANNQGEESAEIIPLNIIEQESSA
Protocol: The resulting pellet was resuspended, homogenized and centrifuged (20.000 rpm, 15 min) in a buffer containing 20 mM Na-HEPES and 0.1 mM EDTA (pH 7.4, buffer 2). The resulting pellet was resuspended in buffer 2 and protein concentration was measured (BCA protein Assay, Pierce). The homogenate was kept cold during the whole procedure. The membranes were kept at −80° C. until use. The assay was performed in a 384 well Optiplate (PerkinElmer) in a total volume of 40 ul. Membranes were mixed with SPA beads. Final concentration of membranes 35 ng/μL final and SPA beads was 0.05 mg/well. Test-compounds were dissolved in DMSO and further diluted in assay buffer (50 mM Hepes, pH 7.4, 1 mM CaCl2, 5 mM MgCl₂, 0.1% OA and 0.02% Tween20). […] The final mixture was incubated with shaking at 400 rpm for 120 min at 25° C. prior to centrifugation (1500 rpm, 10 min). Samples were analyzed on TopCounter™ (Packard). The IC₅₀ was calculated using (one site binding competition analysis) GraphPad Prism5 as a measure of receptor affinity.
Membranes were prepared in the following way; the cells were rinsed with PBS and incubated with Versene for approximately 5 min before harvesting. The cells were flushed with PBS and the cell-suspension was centrifuged for 5 min at 1000 rpm. Cells were homogenized (Ultrathurrax) in a buffer containing 20 mM Na-HEPES and 10 mM EDTA (pH 7.4) and centrifuged at 20.000 rpm for 15 min. The resulting pellet was resuspended, homogenized and centrifuged (20.000 rpm, 15 min) in a buffer containing 20 mM Na-HEPES and 0.1 mM EDTA (pH 7.4, buffer 2). The resulting pellet was resuspended in buffer 2 and protein concentration was measured (BCA protein Assay, Pierce). The homogenate was kept cold during the whole procedure. The membranes were kept at −80° C. until use. Assay was performed in a 384 well Optiplate (PerkinElmer) in a total volume of 40 ul. Membranes were mixed with SPA beads.

rat calcitonin receptor [2] = molecular target: T2, rat calcitonin receptor (rat, UniProt P32214 25-516); experiment: IC50 at rCTR divided by IC50 at rAmylin-R (reference)
T2 construct: whole, on cells; Membranes of BHK tk'ts 13 cells transiently transfected with the rat calcitonin receptor; also called rCTR; rat calcitonin (a) receptor
T2 sequence (looked up): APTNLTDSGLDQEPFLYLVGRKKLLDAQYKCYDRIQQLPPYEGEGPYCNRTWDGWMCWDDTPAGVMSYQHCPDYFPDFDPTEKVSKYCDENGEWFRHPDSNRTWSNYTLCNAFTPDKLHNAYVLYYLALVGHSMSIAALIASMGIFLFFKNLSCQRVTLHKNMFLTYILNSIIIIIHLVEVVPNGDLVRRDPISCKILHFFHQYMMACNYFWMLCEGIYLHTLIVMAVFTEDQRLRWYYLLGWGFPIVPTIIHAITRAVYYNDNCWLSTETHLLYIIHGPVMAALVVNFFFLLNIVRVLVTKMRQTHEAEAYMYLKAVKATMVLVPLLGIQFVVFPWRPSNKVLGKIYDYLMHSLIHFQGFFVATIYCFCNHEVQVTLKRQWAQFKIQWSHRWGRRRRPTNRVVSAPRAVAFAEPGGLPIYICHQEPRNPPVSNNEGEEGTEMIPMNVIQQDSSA

rat calcitonin receptor [3] = molecular target: T2, rat calcitonin receptor; experiment: SPA competition vs 125I-calcitonin, membranes with rat CTR (Assay VIII)
[4] = molecular target: T3, rat amylin receptor (rat calcitonin receptor + rat RAMP 3) (rat, UniProt P32214 25-516; Q9JJ73 23-147); experiment: SPA competition vs 125I-rat amylin, membranes with rat CTR + rat RAMP3 (Assay VI)
T3 construct: whole, on cells; Membranes of BHK tk'ts 13 cells transiently transfected with the rat calcitonin receptor and rat RAMP 3; also called rAmylin-R; rat amylin 3(a) receptor
T3 sequence (looked up) 1: T2 sequence (looked up)
T3 sequence (looked up) 2: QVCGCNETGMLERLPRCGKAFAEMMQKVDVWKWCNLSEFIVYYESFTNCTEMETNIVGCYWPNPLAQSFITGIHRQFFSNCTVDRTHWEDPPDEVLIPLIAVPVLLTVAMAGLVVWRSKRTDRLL
Protocol: The binding assay was performed using scintillation proximity assay (SPA) beads (RPNQ0001) from PerkinElmer and cell membranes from the Amylin 3(a)/CRE-luc cells (as described in Assay (II)) were used. Membranes were prepared in the following way; the cells were rinsed with PBS and incubated with Versene for approximately 5 min before harvesting. The cells were flushed with PBS and the cell-suspension was centrifuged for 5 min at 1000 rpm. Cells were homogenized (ultrathurrax) in a buffer containing 20 mM Na-HEPES and 10 mM EDTA (pH 7.4) and centrifuged at 20.000 rpm for 15 min. The resulting pellet was resuspended, homogenized and centrifuged (20.000 rpm, 15 min) in a buffer containing 20 mM Na-HEPES and 0.1 mM EDTA (pH 7.4, buffer 2). The resulting pellet was resuspended in buffer 2 and protein concentration was measured (BCA protein Assay, Pierce). The homogenate was kept cold during the whole procedure. The membranes were kept at −80° C. until use. The assay was performed in a 384 well Optiplate (PerkinElmer) in a total volume of 40 ul. Membranes were mixed with SPA beads. Final concentration of membranes 35 ng/μL final and SPA beads was 0.05 mg/well. Test-compounds were dissolved in DMSO and further diluted in assay buffer (50 mM Hepes, pH 7.4, 1 mM CaCl2, 5 mM MgCl₂, 0.1% OA and 0.02% Tween20). […] The final mixture was incubated with shaking at 400 rpm for 120 min at 25° C. prior to centrifugation (1500 rpm, 10 min). Samples were analyzed on TopCounter™ (Packard). The IC₅₀ was calculated using (one site binding competition analysis) GraphPad Prism5 as a measure of receptor affinity.
Cells were grown in DMEM with 10% FBS and 1% Pen/Strep. Approximately 48 hours after transfection, the cells were harvested and membranes were prepared.

Ratio hCT/hAmylin binding [1]: 20.5
Ratio rCT/rAmylin binding (rat calcitonin receptor [2]): 44.9
IC50 (rat calcitonin receptor [3]): 54.9 nM
IC50 [4]: 1.22 nM
B1: N^α1-[(4S)-4-carboxy-4-(19-carboxynonadecanoylamino)butanoyl]-[Arg17,Pro21,Pro27,Pro31,Glu35]-h-amylin (peptide)
peptide: {C20 diacid-γGlu}-KCNTATCATQRLANFLRHSSPNFGAIPSSTPVGSETY-NH2
modifications: disulfide 2-7
SMILES: CC[C@H](C)[C@H](NC(=O)[C@H](C)NC(=O)CNC(=O)[C@H](Cc1ccccc1)NC(=O)[C@H](CC(N)=O)NC(=O)[C@@H]1CCCN1C(=O)[C@H](CO)NC(=O)[C@H](CO)NC(=O)[C@H](Cc1c[nH]cn1)NC(=O)[C@H](CCCNC(=N)N)NC(=O)[C@H](CC(C)C)NC(=O)[C@H](Cc1ccccc1)NC(=O)[C@H](CC(N)=O)NC(=O)[C@H](C)NC(=O)[C@H](CC(C)C)NC(=O)[C@H](CCCNC(=N)N)NC(=O)[C@H](CCC(N)=O)NC(=O)[C@@H](NC(=O)[C@H](C)NC(=O)[C@@H]1CSSC[C@H](NC(=O)[C@H](CCCCN)NC(=O)CC[C@H](NC(=O)CCCCCCCCCCCCCCCCCCC(=O)O)C(=O)O)C(=O)N[C@@H](CC(N)=O)C(=O)N[C@@H]([C@@H](C)O)C(=O)N[C@@H](C)C(=O)N[C@@H]([C@@H](C)O)C(=O)N1)[C@@H](C)O)C(=O)N1CCC[C@H]1C(=O)N[C@@H](CO)C(=O)N[C@@H](CO)C(=O)N[C@H](C(=O)N1CCC[C@H]1C(=O)N[C@H](C(=O)NCC(=O)N[C@@H](CO)C(=O)N[C@@H](CCC(=O)O)C(=O)N[C@H](C(=O)N[C@@H](Cc1ccc(O)cc1)C(N)=O)[C@@H](C)O)C(C)C)[C@@H](C)O
notes: modifications are with respect to human amylin; also called compound 28

Ratio hCT/hAmylin binding [1]: 13.9
Ratio rCT/rAmylin binding (rat calcitonin receptor [2]): 67
IC50 (rat calcitonin receptor [3]): 21.6 nM
IC50 [4]: 0.322 nM
B2: N^α1-[(4S)-4-carboxy-4-(19-carboxynonadecanoylamino)butanoyl]-[Arg17,Pro21,Pro27,Pro34,Glu35]-h-amylin (peptide)
peptide: {C20 diacid-γGlu}-KCNTATCATQRLANFLRHSSPNFGAIPSSTNVGPETY-NH2
modifications: disulfide 2-7
SMILES: CC[C@H](C)[C@H](NC(=O)[C@H](C)NC(=O)CNC(=O)[C@H](Cc1ccccc1)NC(=O)[C@H](CC(N)=O)NC(=O)[C@@H]1CCCN1C(=O)[C@H](CO)NC(=O)[C@H](CO)NC(=O)[C@H](Cc1c[nH]cn1)NC(=O)[C@H](CCCNC(=N)N)NC(=O)[C@H](CC(C)C)NC(=O)[C@H](Cc1ccccc1)NC(=O)[C@H](CC(N)=O)NC(=O)[C@H](C)NC(=O)[C@H](CC(C)C)NC(=O)[C@H](CCCNC(=N)N)NC(=O)[C@H](CCC(N)=O)NC(=O)[C@@H](NC(=O)[C@H](C)NC(=O)[C@@H]1CSSC[C@H](NC(=O)[C@H](CCCCN)NC(=O)CC[C@H](NC(=O)CCCCCCCCCCCCCCCCCCC(=O)O)C(=O)O)C(=O)N[C@@H](CC(N)=O)C(=O)N[C@@H]([C@@H](C)O)C(=O)N[C@@H](C)C(=O)N[C@@H]([C@@H](C)O)C(=O)N1)[C@@H](C)O)C(=O)N1CCC[C@H]1C(=O)N[C@@H](CO)C(=O)N[C@@H](CO)C(=O)N[C@H](C(=O)N[C@@H](CC(N)=O)C(=O)N[C@H](C(=O)NCC(=O)N1CCC[C@H]1C(=O)N[C@@H](CCC(=O)O)C(=O)N[C@H](C(=O)N[C@@H](Cc1ccc(O)cc1)C(N)=O)[C@@H](C)O)C(C)C)[C@@H](C)O
notes: modifications are with respect to human amylin; also called compound 29

Ratio hCT/hAmylin binding [1]: 20
Ratio rCT/rAmylin binding (rat calcitonin receptor [2]): 21.7
IC50 (rat calcitonin receptor [3]): 51.5 nM
IC50 [4]: 2.37 nM
B3: N^α1-[(4S)-4-carboxy-4-(19-carboxynonadecanoylamino)butanoyl]-[Glu14,Arg17,Pro21,Pro25,Pro28,Pro29]-h-amylin (peptide)
peptide: {C20 diacid-γGlu}-KCNTATCATQRLAEFLRHSSPNFGPILPPTNVGSNTY-NH2
modifications: disulfide 2-7
SMILES: CC[C@H](C)[C@H](NC(=O)[C@@H]1CCCN1C(=O)CNC(=O)[C@H](Cc1ccccc1)NC(=O)[C@H](CC(N)=O)NC(=O)[C@@H]1CCCN1C(=O)[C@H](CO)NC(=O)[C@H](CO)NC(=O)[C@H](Cc1c[nH]cn1)NC(=O)[C@H](CCCNC(=N)N)NC(=O)[C@H](CC(C)C)NC(=O)[C@H](Cc1ccccc1)NC(=O)[C@H](CCC(=O)O)NC(=O)[C@H](C)NC(=O)[C@H](CC(C)C)NC(=O)[C@H](CCCNC(=N)N)NC(=O)[C@H](CCC(N)=O)NC(=O)[C@@H](NC(=O)[C@H](C)NC(=O)[C@@H]1CSSC[C@H](NC(=O)[C@H](CCCCN)NC(=O)CC[C@H](NC(=O)CCCCCCCCCCCCCCCCCCC(=O)O)C(=O)O)C(=O)N[C@@H](CC(N)=O)C(=O)N[C@@H]([C@@H](C)O)C(=O)N[C@@H](C)C(=O)N[C@@H]([C@@H](C)O)C(=O)N1)[C@@H](C)O)C(=O)N[C@@H](CC(C)C)C(=O)N1CCC[C@H]1C(=O)N1CCC[C@H]1C(=O)N[C@H](C(=O)N[C@@H](CC(N)=O)C(=O)N[C@H](C(=O)NCC(=O)N[C@@H](CO)C(=O)N[C@@H](CC(N)=O)C(=O)N[C@H](C(=O)N[C@@H](Cc1ccc(O)cc1)C(N)=O)[C@@H](C)O)C(C)C)[C@@H](C)O
notes: modifications are with respect to human amylin; also called compound 6
